Biological target: YukE with nsAA 2 (p-azidophenylalanine) incorporated at position 44, YukE(W44TAG) (B. subtilis) (UniProt C0SP85)
Assay: cross-linking; in vivo photo-crosslinking through p-azidophenylalanine (nsAA 2) in B. subtilis cells resuspended in 1x PBS, UV 365 nm for 15 min or 60 min on ice; lysates on 17% SDS-PAGE without reductant, anti-YukE immunoblot

crosslinking efficiency: 100% | stoichiometry N: 2
Substance: YukE with nsAA 2 (p-azidophenylalanine) incorporated at position 44, YukE(W44TAG) (from UniProt C0SP85 1-97) (natural protein)

Source: publication PMC8440579
